Results published in publication PMC7948466.

What was measured:
DNMT3A full length = DNMT3A full length (Homo sapiens, UniProt Q9Y6K1 1-912); experiment: fluorescence anisotropy; unlabeled H3K4me0 peptide (1-21) titrated; 50 nM DNA, 1 uM DNMT3A; FA increases; Fluorescence anisotropy (ex 485 nm, em 520 nm), 5 min incubation at room temperature; binding buffer, salt and pH not given in the material
DNMT3A full length;TDG = DNMT3A full length;TDG (Homo sapiens;Homo sapiens, UniProt Q9Y6K1;Q13569 1-912;1-410, |); experiment: fluorescence anisotropy; unlabeled H3K4me0 peptide titrated; 50 nM DNA, 1 uM 1:1 complex; FA increases; Fluorescence anisotropy (ex 485 nm, em 520 nm), 5 min incubation at room temperature; binding buffer, salt and pH not given in the material
Sequence of DNMT3A full length;TDG (Q9Y6K1 whole entry, chain 1 of 2): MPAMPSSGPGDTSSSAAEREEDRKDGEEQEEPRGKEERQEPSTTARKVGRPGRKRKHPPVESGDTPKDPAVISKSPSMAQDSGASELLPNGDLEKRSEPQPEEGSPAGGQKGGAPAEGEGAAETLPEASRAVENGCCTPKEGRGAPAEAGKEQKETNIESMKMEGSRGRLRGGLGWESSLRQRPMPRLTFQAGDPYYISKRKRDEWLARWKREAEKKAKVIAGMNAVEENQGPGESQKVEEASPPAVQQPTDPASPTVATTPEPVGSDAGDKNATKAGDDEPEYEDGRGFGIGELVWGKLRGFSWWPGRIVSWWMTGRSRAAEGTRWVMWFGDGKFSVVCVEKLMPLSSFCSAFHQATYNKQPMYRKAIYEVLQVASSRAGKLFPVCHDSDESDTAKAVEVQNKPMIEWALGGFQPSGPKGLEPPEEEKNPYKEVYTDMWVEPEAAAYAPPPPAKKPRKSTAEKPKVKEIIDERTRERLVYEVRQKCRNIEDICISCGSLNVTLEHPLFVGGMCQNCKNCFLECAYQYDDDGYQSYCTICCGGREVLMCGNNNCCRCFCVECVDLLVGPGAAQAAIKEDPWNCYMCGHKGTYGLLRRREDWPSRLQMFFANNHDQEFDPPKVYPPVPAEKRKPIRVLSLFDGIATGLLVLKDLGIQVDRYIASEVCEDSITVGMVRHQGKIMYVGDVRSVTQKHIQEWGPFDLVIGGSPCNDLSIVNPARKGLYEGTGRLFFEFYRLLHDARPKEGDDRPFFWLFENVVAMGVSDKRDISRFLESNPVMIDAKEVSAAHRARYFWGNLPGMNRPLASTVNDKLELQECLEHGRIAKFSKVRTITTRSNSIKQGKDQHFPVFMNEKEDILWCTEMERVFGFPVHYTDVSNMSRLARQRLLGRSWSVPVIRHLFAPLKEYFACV
Sequence of DNMT3A full length;TDG (Q13569 whole entry, chain 2 of 2): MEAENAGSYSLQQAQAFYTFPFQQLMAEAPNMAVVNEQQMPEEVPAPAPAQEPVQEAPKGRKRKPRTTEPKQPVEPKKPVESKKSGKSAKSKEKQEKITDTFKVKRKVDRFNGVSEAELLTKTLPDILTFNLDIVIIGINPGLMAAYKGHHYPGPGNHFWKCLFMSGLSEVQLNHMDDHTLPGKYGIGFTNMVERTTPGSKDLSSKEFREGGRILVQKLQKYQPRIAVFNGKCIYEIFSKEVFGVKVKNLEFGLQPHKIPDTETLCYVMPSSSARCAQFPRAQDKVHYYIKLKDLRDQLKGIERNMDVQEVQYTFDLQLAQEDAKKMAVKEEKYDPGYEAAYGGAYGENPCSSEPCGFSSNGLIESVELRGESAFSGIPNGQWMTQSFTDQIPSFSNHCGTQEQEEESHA

DNMT3A full length;p53 = DNMT3A full length;p53 (Homo sapiens;Homo sapiens, UniProt Q9Y6K1;P04637 1-912;1-393, |); experiment: as above

Measured: binding result

Sequence of DNMT3A full length (Q9Y6K1 whole entry): as the sequence (Q9Y6K1 whole entry, chain 1 of 2) above

B1: GCbox30 (dsDNA)
DNA 1: TGGATATCTAGGGGCGCTATGATATCT
DNA 2: AGATATCATAGCGCCCCTAGATATCCA
binds: DNMT3A full length | DNMT3A full length;TDG | DNMT3A full length;p53
